Reference: publication PMC12409425, “Two distinct protein-protein interfaces drive cooperative binding of the herpes simplex virus protein ICP8 to ssDNA, filament formation and annealing essential for viral replication” (The Journal of Biological Chemistry, 2025)
Substitutions are numbered along the chain they refer to. Names and notes keep the numbering of the source.

B1: Cy5-50-mer dT (ssDNA)
DNA: TTTTTTTTTTTTTTTTTTTTTTTTTTTTTTTTTTTTTTTTTTTTTTTTTT
B2: ICP8 WT, full length (natural protein)
chain: METKPKTATTIKVPPGPLGYVYARACPSEGIELLALLSARSGDADVAVAPLVVGLTVESGFEANVAVVVGSRTTGLGGTAVSLKLTPSHYSSSVYVFHGGRHLDPSTQAPNLTRLCERARRHFGFSDYTPRPGDLKHETTGEALCERLGLDPDRALLYLVVTEGFKEAVCINNTFLHLGGSDKVTIGGAEVHRIPVYPLQLFMPDFSRVIAEPFNANHRSIGENFTYPLPFFNRPLNRLLFEAVVGPAAVALRCRNVDAVARAAAHLAFDENHEGAALPADITFTAFEASQGKTPRGGRDGGGKGPAGGFEQRLASVMAGDAALALESIVSMAVFDEPPTDISAWPLCEGQDTAAARANAVGAYLARAAGLVGAMVFSTNSALHLTEVDDAGPADPKDHSKPSFYRFFLVPGTHVAANPQVDREGHVVPGFEGRPTAPLVGGTQEFAGEHLAMLCGFSPALLAKMLFYLERCDGGVIVGRQEMDVFRYVADSNQTDVPCNLCTFDTRHACVHTTLMRLRARHPKFASAARGAIGVFGTMNSMYSDCDVLGNYAAFSALKRADGSETARTIMQETYRAATERVMAELETLQYVDQAVPTAMGRLETIITNREALHTVVNNVRQVVDREVEQLMRNLVEGRNFKFRDGLGEANHAMSLTLDPYACGPCPLLQLLGRRSNLAVYQDLALSQCHGVFAGQSVEGRNFRNQFQPVLRRRVMDMFNNGFLSAKTLTVALSEGAAICAPSLTAGQTAPAESSFEGDVARVTLGFPKELRVKSRVLFAGASANASEAAKARVASLQSAYQKPDKRVDILLGPLGFLLKQFHAAIFPNGKPPGSNQPNPQWFWTALQRNQLPARLLSREDIETIAFIKKFSLDYGAINFINLAPNNVSELAMYYMANQILRYCDHSTYFINTLTAIIAGSRRPPSVQAAAAWSAQGGAGLEAGARALMDAVDAHPGAWTSMFASCNLLRPVMAARPMVVLGLSISKYYGMAGNDRVFQAGNWASLMGGKNACPLLIFDRTRKFVLACPRAGFVCAASNLGGGAHESSLCEQLRGIISEGGAAVASSVFVATVKSLGPRTQQLQIEDWLALLEDEYLSEEMMELTARALERGNGEWSTDAALEVAHEAEALVSQLGNAGEVFNFGDFGCEDDNATPFGGPGAPGPAFAGRKRAFHGDDPFGEGPPDKKGDLTLDML
notes: also called WT ICP8; full-length ICP8
B3: ICP8-CTD Δ60 (domain or fragment)
chain: AASNLGGGAHESSLCEQLRGIISEGGAAVASSVFVATVKSLGPRTQQLQIEDWLALLEDEYLSEEMMELTARALERGNGEWSTDAALEVAHEAEALVSQLG
notes: ICP8 (UL29) of HSV-1, C-terminal domain (begins at 1036) with the last 60 residues deleted; source: E. coli BL21 (pET28a-His-ICP8-CTDΔ60), purified (Talon cobalt beads, Superose 12 gel filtration)
B4: ICP8-CTD WT (His-tagged entire C-terminal domain of ICP8, residues 1036-1196) (domain or fragment)
chain: AASNLGGGAHESSLCEQLRGIISEGGAAVASSVFVATVKSLGPRTQQLQIEDWLALLEDEYLSEEMMELTARALERGNGEWSTDAALEVAHEAEALVSQLGNAGEVFNFGDFGCEDDNATPFGGPGAPGPAFAGRKRAFHGDDPFGEGPPDKKGDLTLDML
notes: ICP8 (UL29) of HSV-1, entire C-terminal domain with the helical bundle and the intact 60-aa disordered tail, residues 1036-1196; The methods give no limits for the pET28a construct and give aa 1049-1135 for the Flag-tagged CTD of the cell experiments; also called WT ICP8-CTD; WT CTD; source: E. coli BL21 (pET28a-His-ICP8-CTD, codon optimised), purified (Talon cobalt beads, Superose 12 gel …)
B5: ICP8-CTD FNF→AAA (domain or fragment)
chain: B4 chain with F107A, N108A, F109A
notes: ICP8 (UL29) of HSV-1, C-terminal domain, residues 1036-1196, with the triple alanine substitution of F1142, N1143 and F1144; the text has 1142-1144; also called FNF→AAA CTD; source: E. coli BL21 (pET28a-His-ICP8-CTD mutant), purified (Talon cobalt beads, Superose 12 gel filtration)
B6: ICP8-CTD D1087A (domain or fragment)
chain: B4 chain with D52A
notes: ICP8 (UL29) of HSV-1, C-terminal domain, residues 1036-1196, with D1087A; source: E. coli BL21 (pET28a-His-ICP8-CTD mutant), purified (Talon cobalt beads, Superose 12 gel filtration)
B7: Cy5-25-mer poly(dT) (ssDNA)
DNA: TTTTTTTTTTTTTTTTTTTTTTTTT

How the values were obtained:
ICP8 WT = ICP8 WT (Herpes simplex virus type 1 (KOS), UniProt P17470 1-1196); test: EMSA; cooperative supershifted band present; EMSA: 20 mM HEPES pH 7.5, 150 mM KCl, 2 mM EDTA, 1 mM TCEP, 6% Ficoll, on ice 30 min, gel at 4 °C; thermal shift: 20 mM Na phosphate (SI: HEPES) pH 7.6, 100 mM; conditions: protein: recombinant; tags: none stated; chain copies: 4; label: Cy5; single strand
[1] = biological target: the molecule itself; test: negative-stain electron microscopy of filament formation; 0.5 μM protein overnight at 4 °C in 20 mM HEPES-KOH pH 7.5, 100 mM NaCl, 10% glycerol, 1 mM DTT, 0.1 mM EDTA, 5 mM MgCl2; uranyl acetate stain; no DNA
[2] = biological target: T1, ICP8Δ60 (HSV-1 ICP8 lacking the 60-aa C-terminal tail) (herpes simplex virus type 1 (HSV-1), …, UniProt P17470 1-1136, in the MST only: labelled on amines with the red dye NT-647-NHS (RED-NHS Monolith kit); unlabelled in the thermal shift assays); test: label-free thermal shift (nanoDSF, Tycho NT.6); as a1 (1:10 M ratio), with 1.2 M excess of a 19-mer ssDNA added to the preformed binary complex; ΔTi counted against apo ICP8Δ60 without ssDNA (ssDNA alone gives 1.1 °C); conditions: both partners purified
T1 construct: the tail is printed as residues 1136-1196; source: Sf9 insect cells infected with recombinant baculovirus (pFastBac1-ICP8Δ60), purified (SP-Sepharose cation exchange)
T1 sequence: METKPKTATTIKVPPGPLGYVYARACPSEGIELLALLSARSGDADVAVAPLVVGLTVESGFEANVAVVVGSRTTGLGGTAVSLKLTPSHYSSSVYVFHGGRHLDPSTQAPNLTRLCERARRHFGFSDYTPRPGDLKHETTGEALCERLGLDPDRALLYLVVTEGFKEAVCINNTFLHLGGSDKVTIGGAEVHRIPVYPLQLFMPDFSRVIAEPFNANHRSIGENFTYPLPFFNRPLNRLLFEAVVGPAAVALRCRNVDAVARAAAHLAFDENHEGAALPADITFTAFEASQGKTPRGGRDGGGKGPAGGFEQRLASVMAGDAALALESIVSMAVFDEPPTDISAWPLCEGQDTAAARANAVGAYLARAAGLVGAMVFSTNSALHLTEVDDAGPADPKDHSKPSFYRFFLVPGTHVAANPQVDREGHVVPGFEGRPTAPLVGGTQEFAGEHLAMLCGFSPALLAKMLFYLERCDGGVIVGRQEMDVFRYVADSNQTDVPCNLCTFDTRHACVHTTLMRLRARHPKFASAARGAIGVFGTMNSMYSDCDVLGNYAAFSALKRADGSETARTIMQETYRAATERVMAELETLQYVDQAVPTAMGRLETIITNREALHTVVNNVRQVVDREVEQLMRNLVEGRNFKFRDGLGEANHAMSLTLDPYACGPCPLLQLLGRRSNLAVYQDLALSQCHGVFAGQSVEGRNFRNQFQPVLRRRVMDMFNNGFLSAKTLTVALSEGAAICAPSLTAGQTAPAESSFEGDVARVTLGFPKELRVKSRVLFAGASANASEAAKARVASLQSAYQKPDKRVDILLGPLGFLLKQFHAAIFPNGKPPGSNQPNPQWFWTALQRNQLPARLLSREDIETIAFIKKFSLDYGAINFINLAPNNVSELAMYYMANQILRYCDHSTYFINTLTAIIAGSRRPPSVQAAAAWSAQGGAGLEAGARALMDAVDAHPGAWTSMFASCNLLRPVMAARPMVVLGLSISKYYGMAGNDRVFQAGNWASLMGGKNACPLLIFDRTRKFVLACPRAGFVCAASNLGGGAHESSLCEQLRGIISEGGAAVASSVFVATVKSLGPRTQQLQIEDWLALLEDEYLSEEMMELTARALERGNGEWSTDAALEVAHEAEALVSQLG

[3] = biological target: T1, ICP8Δ60 (HSV-1 ICP8 lacking the 60-aa …); test: MST; ICP8Δ60 labelled with NT-647-NHS at 20 nM or 50 nM, unlabelled CTD fragment titrated from low nanomolar to high micromolar; 20 mM sodium phosphate pH 7.5, 100 mM NaCl, 0.1 mM EDTA, 2 mM DTT, 5 mM MgCl2, 0.05% Tween 20; 30 min at RT; one site binding model; conditions: both partners purified
[4] = biological target: T1, ICP8Δ60 (HSV-1 ICP8 lacking the 60-aa …); test: label-free thermal shift (nanoDSF, Tycho NT.6); 5 μM ICP8Δ60 with a molar excess of CTD fragment (1:10 M ratio), no ssDNA; shift of the inflection temperature Ti of ICP8Δ60; 20 mM Na phosphate pH 7.6, 100 mM NaCl, 100 μM EDTA, 1 mM TCEP, 10% glycerol, 5 mM MgCl2; heated at 30 °C/min; conditions: both partners purified
[5] = biological target: T1, ICP8Δ60 (HSV-1 ICP8 lacking the 60-aa …); test: label-free thermal shift (nanoDSF), dose series refitted with MoltenProt; 5 μM ICP8Δ60 preincubated with 10 to 100 μM CTD fragment (1:2 to 1:20 M ratio) for 3 h at room temperature; two-state reversible unfolding model; conditions: both partners purified
ICP8Δ60 = ICP8Δ60 (Herpes simplex virus type 1 (KOS), UniProt P17470 1-1136); test: MST; 20 nM DNA; EMSA: 20 mM HEPES pH 7.5, 150 mM KCl, 2 mM EDTA, 1 mM TCEP, 6% Ficoll, on ice 30 min, gel at 4 °C; thermal shift: 20 mM Na phosphate (SI: HEPES) pH 7.6, 100 mM; conditions: protein: recombinant; tags: none stated; label: 5' Cy5; single strand

Binder | ΔTi of ICP8Δ60 (Ti complex - Ti apo), + ssDNA [2] | Kd [3] | ΔTi of ICP8Δ60 (Ti complex - Ti apo), - ssDNA [4] | also measured
B1 | – | – | – | binding result (ICP8 WT): binds
B2 | – | – | – | binding result [1]: binds
B3 | 2 °C | 53500 nM | 0.7 °C | –
B4 | 2.9 °C | 147 nM | 2.1 °C | Ti of ICP8Δ60 at 1:2 ratio (ICP8Δ60 alone 51.5) [5]: 52.1 ± 0.1 °C; Ti of ICP8Δ60 at 1:5 ratio (ICP8Δ60 alone 51.5) [5]: 52.7 ± 0.1 °C; Ti of ICP8Δ60 at 1:10 ratio (ICP8Δ60 alone 51.5) [5]: 53.3 ± 0.1 °C; Ti of ICP8Δ60 at 1:20 ratio (ICP8Δ60 alone 51.5) [5]: 53.9 ± 0.1 °C
B5 | 1.9 °C | 21100 nM | 0.6 °C | –
B6 | 2.4 °C | 1550 nM | 1 °C | –
B7 | – | – | – | Kd (ICP8Δ60): 70 nM
